For test [1], the target named is T1, Recombinant Human VEGF165 (R&D Systems, 293-VE-010/CF) (human, UniProt P15692 27-191).
T1 construct: mature; Amine-coupled to a CM5 chip for SPR, and added to the medium in the HUVEC survival assay; also called rhVEGF
Briefly: SPR (Biacore X100), rhVEGF165 amine-coupled to CM5 chip, design as analyte, multi-cycle kinetics, 1:1 binding assumed.

In test [2] the target is VEGF (autocrine, of U937 acute myeloid leukemia cells) (UniProt P15692-4 27-191, limits assumed). Put plainly: cell-based or functional assay.

“And” between values parts separate entries of the source, which are not always exact repeats. Equal values may be shown once.

VEGF (autocrine, of U937 acute myeloid leukemia cells), sequence (P15692 other isoform, or with tags, fused parts or gaps limits assumed): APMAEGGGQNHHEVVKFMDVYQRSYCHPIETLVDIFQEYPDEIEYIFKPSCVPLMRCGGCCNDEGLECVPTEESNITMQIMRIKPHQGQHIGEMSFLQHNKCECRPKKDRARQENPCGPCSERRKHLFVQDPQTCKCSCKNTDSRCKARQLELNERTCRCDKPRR
T1 sequence (P15692 other isoform, or with tags, fused parts or gaps): as the sequence (P15692 other isoform, or with tags, fused parts or gaps limits assumed) above

B1: Sima3.2 (designed binder)
chain: STNISPKQGLDKAKYFSGKWYLTHVLIKDPKIVSQFCASFTPRESDGTVKIAVYLYLAIKKTSDYAIGEGKLESSGLQYTATSKVVDKKKAVLKELDERHSYTVTVLEADDSSALTHITVREGSKDYGDYYLVLTHQKDAEPSAKVKSAVTQAGLQLSQFVGTKDLGCQYDDQFTSL
notes: not shown: N-terminal poly-histidine tag and thrombin cleavage site from pET28a(+)
As for B1, the Kd in test [1] turned out to be 14 nM. Also, in test [2], the “IC50, proliferation of U937 cells” value was 3.6 µg/ml and 180 nM.

B2: Sam0.7 (designed binder)
chain: LPTAEEVQKLMARYIELMDVGDIEAIVQMYADDATVEAPFGAPPIHGRERIAYFYRRMLGGGIARATLTGPVRASHNGTGAMPFRVEYVFNGQPFAMDVRVEMRFDEHGRIQTMQAYWDWVNLSVREP
notes: Designed on the ketosteroid isomerase scaffold (PDB 1OH0); Made in E. coli; The monomeric gel filtration fraction was used; not shown: N-terminal poly-histidine tag and thrombin cleavage site from pET28a(+)
Turning to B2, in test [1], the Kd is 190 nM. The “IC50, proliferation of U937 cells” value in test [2] is 8 µg/ml and 533 nM.

Usually Kd stands for a measure of binding affinity in units of concentration.

The record behind these values is EP4643867A1 (Eberhard Karls Universität Tübingen (Medizinische Fakultät), dated 2025).
